From patent publication US20180312591A1 (ONCOSYNERGY, published 2018) come the findings set out here.

This test has as its target T1, human integrin β1 (human, UniProt P05556 21-798).
T1 construct: whole, on cells; the antibodies are described as anti-human integrin β1; also called CD29; ITGB1
The test can be described thus: competition FACS on Jurkat cells; competitor murine OS2966 (0.1875 µg/ml). On the procedure:
Binding of composite human antibody variants (from Table 2) was assessed in a competition FACS assay with the OS2966 murine chimeric antibody (murine OS2966 Fab sliced to human Fc). In brief, a dilution series (three-fold) of chimeric or humanized antibodies starting from 25.0 μg/ml was premixed with a constant concentration of murine OS2966 (0.1875 μg/ml) in FACS buffer (1% BSA in 1×PBS pH 7.4) before mixing with 3×10⁵ Jurkat cells. […] After incubating on ice for 45 min, cells were washed, resuspended in 300 μl FACS buffer and analyzed on a Beckton Dickinson FACScalibur™. The geometric mean fluorescence intensity was plotted against antibody concentration (FIGS. 20-24).

B1: composite human antibody variant H1 (antibody, V domains shown)
VH: EVQLVQSGAEVKKPGSSVKVSCKASGYTFTGYILSWVRQAPGQGLEWIGWVDPEYGSTDSAEKFKKRVTITADISTSTAYMELSSLRSEDTATYFCTRYYDGYYRRWFAYWGQGTLVTVSS
VL: DIQMTQSPSSLSASVGDRVTITCLASEGISNNLAWYQQKPGKAPKLLIYGAHSLHDGVPDRFSGSGSGTDYTLKISRVEAEDVGVYYCQQGYKYPITFGGGTKVEIK
notes: also called VH5VK3
Turning to B1, the “relative IC50 (IC50 of test antibody / IC50 of chimeric antibody)” value was 0.88 ratio to chimeric antibody.

B2: composite human antibody variant H19 (antibody, V domains shown)
VH: EVQLVQSGPEVKKPGSSVKISCKASGYTFTGYILSWVKQAPGQGLEWIGWVDPEYGSTDSAEKFKKRATLTADISTNTAYIQLSSLRSEDTATYFCTRYYDGYYRRWFAYWGQGTLVTVSS
VL: DIQMTQSPSSLSASVGDRVTITCLASEGISNNLAWHQQKPGKAPQLLIYGAHSLHDGVPDRFSGSGSGTDYTLKISGMQPEDEGVYYCQQGYKYPITFGGGTKVEIK
notes: also called VH1VK1
B2: the “relative IC50 (IC50 of test antibody / IC50 of chimeric antibody)” value was 1.13 ratio to chimeric antibody.

B3: composite human antibody variant H3 (antibody, V domains shown)
VH: EVQLVQSGAEVKKPGSSVKVSCKASGYTFTGYILSWVRQAPGQGLEWIGWVDPEYGSTDSAEKFKKRATITADISTSTAYMELSSLRSEDTATYFCTRYYDGYYRRWFAYWGQGTLVTVSS
VL: DIQMTQSPSSLSASVGDRVTITCLASEGISNNLAWYQQKPGKAPKLLIYGAHSLHDGVPDRFSGSGSGTDFTLKISRVEAEDVGVYYCQQGYKYPITFGGGTKVEIK
notes: also called VH4VK4
Turning to B3, the “relative IC50 (IC50 of test antibody / IC50 of chimeric antibody)” value was 2.7 ratio to chimeric antibody.

B4: composite human antibody variant H10 (antibody, V domains shown)
VH: EVQLVQSGAEVKKPGSSVKISCKASGYTFTGYILSWVRQAPGQGLEWIGWVDPEYGSTDSAEKFKKRATLTADISTSTAYIELSSLRSEDTATYFCTRYYDGYYRRWFAYWGQGTLVTVSS
VL: DIQMTQSPSSLSASVGDRVTITCLASEGISNNLAWYQQKPGKAPKLLIYGAHSLHDGVPDRFSGSGSGTDFTLKISRVEAEDVGVYYCQQGYKYPITFGGGTKVEIK
notes: also called VH3VK4
With B4, the “relative IC50 (IC50 of test antibody / IC50 of chimeric antibody)” value is 2.76 ratio to chimeric antibody.

B5: composite human antibody variant H5 (antibody, V domains shown)
VH: EVQLVQSGAEVKKPGSSVKVSCKASGYTFTGYILSWVRQAPGQGLEWIGWVDPEYGSTDSAEKFKKRVTITADISTSTAYMELSSLRSEDTATYFCTRYYDGYYRRWFAYWGQGTLVTVSS
VL: DIQMTQSPSSLSASVGDRVTITCLASEGISNNLAWHQQKPGKAPKLLIYGAHSLHDGVPDRFSGSGSGTDYTLKISRVEAEDVGVYYCQQGYKYPITFGGGTKVEIK
notes: also called VH5VK2
Take B5: the “relative IC50 (IC50 of test antibody / IC50 of chimeric antibody)” value is 0.85 ratio to chimeric antibody.

B6: composite human antibody variant H13 (antibody, V domains shown)
VH: EVQLVQSGAEVKKPGSSVKISCKASGYTFTGYILSWVRQAPGQGLEWIGWVDPEYGSTDSAEKFKKRATLTADISTNTAYIELSSLRSEDTATYFCTRYYDGYYRRWFAYWGQGTLVTVSS
VL: DIQMTQSPSSLSASVGDRVTITCLASEGISNNLAWYQQKPGKAPKLLIYGAHSLHDGVPDRFSGSGSGTDFTLKISRVEAEDVGVYYCQQGYKYPITFGGGTKVEIK
notes: also called VH2VK4
Regarding B6, the “relative IC50 (IC50 of test antibody / IC50 of chimeric antibody)” value is 2 ratio to chimeric antibody.

B7: composite human antibody variant H11 (antibody, V domains shown)
VH: EVQLVQSGAEVKKPGSSVKISCKASGYTFTGYILSWVRQAPGQGLEWIGWVDPEYGSTDSAEKFKKRATLTADISTSTAYIELSSLRSEDTATYFCTRYYDGYYRRWFAYWGQGTLVTVSS
VL: DIQMTQSPSSLSASVGDRVTITCLASEGISNNLAWYQQKPGKAPKLLIYGAHSLHDGVPDRFSGSGSGTDYTLKISRVEAEDVGVYYCQQGYKYPITFGGGTKVEIK
notes: also called VH3VK3
With B7, the “relative IC50 (IC50 of test antibody / IC50 of chimeric antibody)” value is 1.58 ratio to chimeric antibody.

B8: composite human antibody variant H8 (antibody, V domains shown)
VH: EVQLVQSGAEVKKPGSSVKVSCKASGYTFTGYILSWVRQAPGQGLEWIGWVDPEYGSTDSAEKFKKRATITADISTSTAYMELSSLRSEDTATYFCTRYYDGYYRRWFAYWGQGTLVTVSS
VL: DIQMTQSPSSLSASVGDRVTITCLASEGISNNLAWHQQKPGKAPKLLIYGAHSLHDGVPDRFSGSGSGTDYTLKISRVEAEDVGVYYCQQGYKYPITFGGGTKVEIK
notes: also called VH4VK2
For B8, the “relative IC50 (IC50 of test antibody / IC50 of chimeric antibody)” value is 1.18 ratio to chimeric antibody.

B9: composite human antibody variant H15 (antibody, V domains shown)
VH: EVQLVQSGAEVKKPGSSVKISCKASGYTFTGYILSWVRQAPGQGLEWIGWVDPEYGSTDSAEKFKKRATLTADISTNTAYIELSSLRSEDTATYFCTRYYDGYYRRWFAYWGQGTLVTVSS
VL: DIQMTQSPSSLSASVGDRVTITCLASEGISNNLAWHQQKPGKAPKLLIYGAHSLHDGVPDRFSGSGSGTDYTLKISRVEAEDVGVYYCQQGYKYPITFGGGTKVEIK
notes: also called VH2VK2
Regarding B9, the “relative IC50 (IC50 of test antibody / IC50 of chimeric antibody)” value is 1.32 ratio to chimeric antibody.

B10: composite human antibody variant H6 (antibody, V domains shown)
VH: EVQLVQSGAEVKKPGSSVKVSCKASGYTFTGYILSWVRQAPGQGLEWIGWVDPEYGSTDSAEKFKKRVTITADISTSTAYMELSSLRSEDTATYFCTRYYDGYYRRWFAYWGQGTLVTVSS
VL: DIQMTQSPSSLSASVGDRVTITCLASEGISNNLAWHQQKPGKAPQLLIYGAHSLHDGVPDRFSGSGSGTDYTLKISGMQPEDEGVYYCQQGYKYPITFGGGTKVEIK
notes: also called VH5VK1
B10: the “relative IC50 (IC50 of test antibody / IC50 of chimeric antibody)” value is 1.24 ratio to chimeric antibody.

B11: composite human antibody variant H4 (antibody, V domains shown)
VH: EVQLVQSGAEVKKPGSSVKVSCKASGYTFTGYILSWVRQAPGQGLEWIGWVDPEYGSTDSAEKFKKRVTITADISTSTAYMELSSLRSEDTATYFCTRYYDGYYRRWFAYWGQGTLVTVSS
VL: DIQMTQSPSSLSASVGDRVTITCLASEGISNNLAWYQQKPGKAPKLLIYGAHSLHDGVPDRFSGSGSGTDFTLKISRVEAEDVGVYYCQQGYKYPITFGGGTKVEIK
notes: also called VH5VK4
B11: the “relative IC50 (IC50 of test antibody / IC50 of chimeric antibody)” value is 3.26 ratio to chimeric antibody.

B12: composite human antibody variant H2 (antibody, V domains shown)
VH: EVQLVQSGAEVKKPGSSVKISCKASGYTFTGYILSWVRQAPGQGLEWIGWVDPEYGSTDSAEKFKKRATLTADISTSTAYIELSSLRSEDTATYFCTRYYDGYYRRWFAYWGQGTLVTVSS
VL: DIQMTQSPSSLSASVGDRVTITCLASEGISNNLAWHQQKPGKAPQLLIYGAHSLHDGVPDRFSGSGSGTDYTLKISGMQPEDEGVYYCQQGYKYPITFGGGTKVEIK
notes: also called VH3VK1
As to B12, the “relative IC50 (IC50 of test antibody / IC50 of chimeric antibody)” value is 0.97 ratio to chimeric antibody.
